# Measured values from patent US20040126860.
# Residue numbers refer to the chain shown, from its start.
# B1: mutant human cMLCK (ala 87 val, ala 95 glu), full length, with amino-terminal FLAG tag (protein)
# chain: MATENGAVELGIQNPSTDKAPKGPTGERPLAAGKDPGPPDPKKAPDPPTLKKDAKAPASEKGDGTLAQPSTSSQGPKGEGDRGGGPVEGSAGPPEALPQQTATPETSVKKPKAEQGASGSQDPGKPRVGKKAAEGQAAARRGSPAFLHSPSCPAIISSSEKLLAKKPPSEASELTFEGVPMTHSPTDPRPAKAEEGKNILAESQKEVGEKTPGQAGQAKMQGDTSRGIEFQAVPSEKSEVGQALCLTAREEDCFQILDDCPPPPAPFPHRMVELRTGNVSSEFSMNSKEALGGGKFGAVCTCMEKATGLKLAAKVIKKQTPKDKEMVLLEIEVMNQLNHRNLIQLYAAIETPHEIVLFMEYIEGGELFERIVDEDYHLTEVDTMVFVRQICDGILFMHKMRVLHLDLKPENILCVNTTGHLVKIIDFGLARRYNPNEKLKVNFGTPEFLSPEVVNYDQISDKTDMWSMGVITYMLLSGLSPFLGDDDTETLNNVLSGNWYFDEETFEAVSDEAKDFVSNLIVKDQRARMNAAQCLAHPWLNNLAEKAKRCNRRLKSQILLKKYLMKRRWKKNFIAVSAANRFKKISSSGALMALGV
# B2: human cardiac myosin light chain kinase (cMLCK), full length, wild type, with amino-terminal FLAG tag (protein)
# chain: B1 chain with V87A, E95A
# Target: purified complex of human cardiac RLC, human ventricular ELC and the β-myosin heavy chain light chain binding fragment (aa778-840), P10916
# Sequence (P10916 2-166, chain 1 of 3): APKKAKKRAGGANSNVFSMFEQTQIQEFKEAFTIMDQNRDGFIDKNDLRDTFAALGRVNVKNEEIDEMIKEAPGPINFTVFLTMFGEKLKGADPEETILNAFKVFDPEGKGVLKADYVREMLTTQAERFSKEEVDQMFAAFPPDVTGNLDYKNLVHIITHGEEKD
# Sequence (chain, as listed by the source, chain 2 of 3): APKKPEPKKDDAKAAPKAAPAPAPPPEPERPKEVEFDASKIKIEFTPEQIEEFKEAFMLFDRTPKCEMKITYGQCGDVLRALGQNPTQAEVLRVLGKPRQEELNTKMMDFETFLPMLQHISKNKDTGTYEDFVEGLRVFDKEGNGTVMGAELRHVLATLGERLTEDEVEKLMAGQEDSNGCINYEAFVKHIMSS
# Sequence (chain, as listed by the source, chain 3 of 3): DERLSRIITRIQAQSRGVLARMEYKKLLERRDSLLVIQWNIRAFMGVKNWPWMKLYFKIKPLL
Protein,"K, (printed so; presumably Km)",Vmax (pmoles min^-1 ng^-1)
B1,17 µM,216
B2,6 µM,115
